Measured values taken from article PMC10776578, “Epstein-Barr virus-driven B cell lymphoma mediated by a direct LMP1-TRAF6 complex” (Nature Communications, 2024).
Where a chain is given by its changes, count along the chain named. Numbers in names are those of the source. Entries after “also recorded” stand apart in the source; their conditions may differ.

B1: R392A (protein, UniProt Q9Y4K3 1-522, looked up, variant R392A)
TNF receptor-associated …: MSLLNCENSCGSSQSESDCCVAMASSCSAVTKDDSVGGTASTGNLSSSFMEEIQGYDVEFDPPLESKYECPICLMALREAVQTPCGHRFCKACIIKSIRDAGHKCPVDNEILLENQLFPDNFAKREILSLMVKCPNEGCLHKMELRHLEDHQAHCEFALMDCPQCQRPFQKFHINIHILKDCPRRQVSCDNCAASMAFEDKEIHDQNCPLANVICEYCNTILIREQMPNHYDLDCPTAPIPCTFSTFGCHEKMQRNHLARHLQENTQSHMRMLAQAVHSLSVIPDSGYISEVRNFQETIHQLEGRLVRQDHQIRELTAKMETQSMYVSELKRTIRTLEDKVAEIEAQQCNGIYIWKIGNFGMHLKCQEEEKPVVIHSPGFYTGKPGYKLCMALHLQLPTAQRCANYISLFVHTMQGEYDSHLPWPFQGTIRLTILDQSEAPVRQNHEEIMDAKPELLAFQRPTIPRNPKGFGYVTFMHLEALRQRTFIKDDTLLVRCEVSTRFDMGSLRREGFQPRSTDAGV
B2: F471A (protein, UniProt Q9Y4K3 1-522, looked up, variant F471A)
TNF receptor-associated …: B1 TNF receptor-associated … with A392R, F471A
B3: Y473A (protein, UniProt Q9Y4K3 1-522, looked up, variant Y473A)
TNF receptor-associated …: B1 TNF receptor-associated … with A392R, Y473A

Experiments:
GST-LMP1 Q381E = experiment: AlphaScreen PPI, TRAF6 mutants binding to LMP1 Q381E; design: species or system Epstein-Barr virus; conditions: for interaction with LMP1 Q381E (in words): AlphaScreen PPI, four independent experiments; for TRAF6 binding to LMP1 Q-E, AlphaScreen (relative), Supplementary Figure 2 a: mean of wt = 100; for TRAF6 binding to LMP1 Q-E, AlphaScreen (relative), mean: wt = 100, mean of n = 4
Procedure: AlphaScreen experiments were performed in 96- or 384-well plates (Perkin Elmer, OptiPlate). In both assay formats, His-TRAF and GST-LMP1, GST-CD40, or GST-RANK proteins were incubated together in 40 µL of PBS (protein concentrations were calculated to the final reaction volume of 60 µL) supplemented with 0.5% BSA (Sigma, #A7030) and 0.1% Tween-20 (AppliChem, #A4974), for 1 h at room temperature (RT). If not indicated otherwise, standard protein concentrations were 300 nM for His-TRAF proteins and 100 nM for GST-LMP1 proteins. Ni-NTA-acceptor (Perkin Elmer, #6760619 C) and GST-acceptor (Perkin Elmer, # 6765300) beads were added each to a final concentration of 1–4 µg per mL in a final reaction volume of 60 µL and incubated for 1 h at RT in the dark. AlphaScreen PPI signals were measured in a CLARIOstar reader (BMG Labtech GmbH). […]
Supplementary Figure 2. LMP1 Q381E interaction with TRAF6 and additional controls to
experiments. Data are mean values ± SD of four independent experiments. Statistics: one -way
ANOVA. p-values: ****p ≤ 0.0001. Source data in the Source Data file. […]

HA-LMP1 = experiment: Coimmunoprecipitation of HA-LMP1 with Flag-TRAF6 mutants in HEK293 cells; format: cell-based, Epstein-Barr virus; conditions: for coprecipitated HA-LMP1 signal (densitometry), mean: HEK293, mean of n = 3; for interaction of TRAF6 mutants with LMP1 in HEK293 cells (in words): coimmunoprecipitation
Procedure: (§1) Immunoblotting was essentially performed as described. Proteins were detected on nitrocellulose membranes (Bio-Rad, #1620115) using the following primary antibodies: α−6*His-tag (clone 4A4 or 2F12, source: antibody facility of the Helmholtz Center Munich, hybridoma supernatants were used at a 1:10 dilution)[75], α-TRAF6 (H-274, Santa Cruz Biotech., #sc-7221, used at 1:1000), α-HA-tag (12CA5, Sigma-Aldrich, #11583816001, used at 0.4 µg per mL), α-IκBα (C-21, Santa Cruz Biotech., #sc-371, used at 1:500) and α-Tubulin (B-5-1-2, Santa Cruz Biotech., #sc-23948, used at 1:500). Horseradish peroxidase-coupled antibodies were used as secondary antibodies (Cell Signalling Technology, #7074 or #7076, respectively, both used at 1:5000). ECL signals were captured on X-ray films (Agfa Healthcare) and quantified by densitometry using the ImageJ software. Uncropped scans of immunoblots indicating molecular weights are provided in Supplementary Fig. 6.
HEK293 cells were transfected with 1 µg of pRK5-Flag TRAF6 plasmids, 1 µg of pCMV-HA-LMP1 and 6 µg of pRK5 per 10 cm cell culture dish using PolyFect Transfection Reagent (Qiagen, #301107) in RPMI without supplements. Cells were incubated with the plasmid transfection mix for 4 h before the medium was changed to RPMI full medium. After 24 h, the cells were lysed in NP40-lysis buffer (50 mM HEPES pH 7.5, 150 mM NaCl, 5 mM EDTA, 0.5 mM sodium orthovanadate, 0.5 mM PMSF, 0.5 mM sodium molybdate, and cOmplete protease inhibitor cocktail). Lysates were cleared by centrifugation at 15000 x g for 10 min at 4 °C, and the protein concentration was adjusted to 1 mg per mL. For immunoprecipitation 4 mL of lysate was incubated with the α-Flag antibody 6F7 (Sigma-Aldrich, #F3165; covalently coupled to protein-G-Sepharose) for 1 h at 4 °C. The beads were pelleted at 15000 x g for 30 seconds at 4 °C, washed twice with NP40-lysis buffer, and analyzed by immunoblotting.

NF-κB in TRAF6^-/- MEFs = experiment: NF-κB reporter assay, TRAF6 rescue of CTAR2 signalling; format: cell-based, mouse; design: unit not given here
Procedure: TRAF6^−/− cells (6 × 10^4) were seeded per well of a 6-well plate in DMEM full medium the day before transfection. Cells were transfected with 2 µg of the indicated pCMV-HA-LMP1 plasmids together with 0.5 µg of pRK5-Flag-TRAF6 plasmids or empty vector, 0.05 µg of NF-κB luciferase reporter 3xκB-Luc and 0.2 µg of pPGK-Renilla housekeeping control reporter using the PolyFect transfection reagent (Qiagen)[33]. After 4 h the transfection mix was removed, and the cells were kept overnight in DMEM full medium. NF-κB reporter and Renilla control activities were measured with the Dual-Luciferase reporter assay kit (Promega, #E1910) following the manufacturer’s instructions. Samples of each lysate were analyzed for LMP1 and TRAF6 expression by immunoblotting.

[1] = test system: IκBα in TRAF6^-/- MEFs expressing NGFR-LMP1; experiment: IκBα degradation (canonical NF-κB) upon NGFR-LMP1 crosslinking; format: cell-based, mouse; conditions: IκBα immunoblot
Source text: Wild-type MEFs and derivatives thereof, TRAF6^-/- MEFs[79], and HeLa cells (obtained from the German Collection of Microorganisms and Cell Cultures, GCMC) were kept in Dulbecco’s modified Eagle’s medium (DMEM, Thermo Fischer, #41966-029). The cell lines HEK293 (obtained from GCMC), HA-LCL3[31], LCL721[80], BL41[81], LCL.NGFR-LMP1[35], and the mouse lymphomas LMP1-CL 37 and 40 were kept in Roswell Park Memorial Institute medium (RPMI 1640, Thermo Fisher, #21875-034). If not indicated otherwise, DMEM and RMPI were supplemented with 10% of fetal bovine serum (FBS; Sigma, #F7524), 1 mM L-glutamine (Thermo Fisher, #25030-024) and antibiotics (50 U per mL penicilline and 50 µg per mL streptomycin). LCL.NGFR-LMP1 cells were additionally supplemented with 100 nM sodium selenite and crosslinking primary and secondary antibodies (see below). All cells were kept at 37 °C in the presence of 5% CO2. Retroviral transduction of MEFs with NGFR-LMP1 and TRAF6 was carried out with the vectors pSF91-NGFR-LMP1-IRES-GFP-WPRE and pSF91-Flag-TRAF6-IRES-CFP-WPRE expressing TRAF6 wild-type or the indicated TRAF6 mutants. For NGFR-LMP1 crosslinking, 1 µg per mL of α-NGFR primary antibody (clone HB8737, ATTC) was added for 1 h to the cells. signalling was activated by further addition of 10 µg per mL of α-mouse IgG/IgM secondary antibody (Dianova, #115-005-068) for the given time points.
as §1, with “Horseradish peroxidase-coupled antibodies were used as secondary antibodies (Cell Signalling Technology, #7074 or #7076, respectively, both used at 1:5000).” left out, “Uncropped scans of immunoblots indicating molecular weights are provided in Supplementary Fig. 6.” left out

[2] = with A204xAxA (CTAR2-specific signalling), replicate 1
[3] = with A204xAxA/∆371-386 (inactive null control), replicate 1
[4] = with A204xAxA/∆371-386, mean of n = 5
[5] = with A204xAxA/∆371-386, replicate 2
[6] = with A204xAxA/∆371-386, replicate 3
[7] = with A204xAxA/∆371-386, replicate 4
[8] = with A204xAxA/∆371-386, replicate 5

Molecule | interaction with LMP1 Q381E (in words) (GST-LMP1 Q381E) | TRAF6 binding to LMP1 Q-E, AlphaScreen (relative), Supplementary Figure 2 a (GST-LMP1 Q381E; replicate 1) | TRAF6 binding to LMP1 Q-E, AlphaScreen (relative), Supplementary Figure 2 a (GST-LMP1 Q381E; replicate 2) | TRAF6 binding to LMP1 Q-E, AlphaScreen (relative), Supplementary Figure 2 a (GST-LMP1 Q381E; replicate 3) | TRAF6 binding to LMP1 Q-E, AlphaScreen (relative), Supplementary Figure 2 a (GST-LMP1 Q381E; replicate 4) | coprecipitated HA-LMP1 signal (densitometry), mean (HA-LMP1) | interaction of TRAF6 mutants with LMP1 in HEK293 cells (in words) (HA-LMP1) | NF-κB reporter activity (NF-κB in TRAF6^-/- MEFs; [2]) | NF-κB reporter activity, mean (NF-κB in TRAF6^-/- MEFs; with A204xAxA, mean of n = 5) | NF-κB reporter activity (NF-κB in TRAF6^-/- MEFs; with A204xAxA, replicate 2) | NF-κB reporter activity (NF-κB in TRAF6^-/- MEFs; with A204xAxA, replicate 3) | NF-κB reporter activity (NF-κB in TRAF6^-/- MEFs; with A204xAxA, replicate 4) | NF-κB reporter activity (NF-κB in TRAF6^-/- MEFs; with A204xAxA, replicate 5) | NF-κB reporter activity (NF-κB in TRAF6^-/- MEFs; [3]) | NF-κB reporter activity, mean (NF-κB in TRAF6^-/- MEFs; [4]) | NF-κB reporter activity (NF-κB in TRAF6^-/- MEFs; [5]) | NF-κB reporter activity (NF-κB in TRAF6^-/- MEFs; [6]) | NF-κB reporter activity (NF-κB in TRAF6^-/- MEFs; [7]) | NF-κB reporter activity (NF-κB in TRAF6^-/- MEFs; [8]) | rescue of canonical NF-κB activation by NGFR-LMP1 (in words) [1] | other results
B1 | fail to interact with LMP1 Q381E; also recorded: unable to override the negative effect of R392A mutation | 8.4 | 4.1 | 6.1 | 4.8 | 2761976 | abolished the TRAF6 interaction with LMP1 | 29.9 | 25.57 | 20.3 | 24.4 | 30.5 | 22.7 | 23.3 | 17.45 | 12.6 | 15.1 | 21.7 | 14.7 | ineffective in rescuing canonical NF-κB activation | TRAF6 binding to LMP1 Q-E, AlphaScreen (relative), mean (GST-LMP1 Q381E): 5.85
B2 | fail to interact with LMP1 Q381E; also recorded: unable to override the negative effect | 4.8 | 2.2 | 3.4 | 2.2 | 5862061 | abolished the TRAF6 interaction with LMP1 | 22.4 | 20.18 | 16.8 | 19.1 | 26.3 | 16.3 | 22.3 | 19.11 | 23.1 | 15.5 | 21.1 | 13.4 | ineffective in rescuing canonical NF-κB activation | TRAF6 binding to LMP1 Q-E, AlphaScreen (relative), mean (GST-LMP1 Q381E): 3.15
B3 |  |  |  |  |  | 5322536 | abolished the TRAF6 interaction with LMP1 | 17.9 | 16.74 | 12.1 | 18.2 | 20.7 | 14.7 | 21.7 | 17.54 | 12.1 | 17.7 | 21.8 | 14.3 | ineffective in rescuing canonical NF-κB activation | 
